We go through one variant from IntAct's records for PubMed 17129783.

Sequences and labels used below:
B1: Kinetochore protein ndc-80 (Caenorhabditis elegans), Q17635 (parent)
chain: MFGDRRKTGGLNLNGRASIAITPTKRFTDYTGSTSVRKTDARPSLSQPRVSLFNTKNSSVAPRDVKSLVSLNGSKIYNFLVEYESSDAPSEQLIMKPRGKNDFIACFELIYQHLSKDYEFPRHERIEEEVSQIFKGLGYPYPLKNSYYQPMGSSHGYPHLLDALSWLIDIIRINSAVSEDTQNILFGDFMEQGKAQEKTLNYAWMTSTFRDYTNDRKAAENPSSSYWDDTKHRLRKYFEQSNEFEDMTKTAASALEMLNYECDEIEADKGNEASLKEEISRIRDDIRKAKDYLEQNLHVKQHMEKELAMVKSEQEEKISENEKVQKMVDDLKNKIELQKQIHGLTGKEVRQMNLDNNKDKEVVLEIQSELDRLSKETWKLKDEDFFKEQKSKFIHLAEQIMKILSGLNIQMNLEPLRAPTNERDLKDYWETLNKIWVPEISRQLHQRKLELETEQSRFSNKAVTAEERIQIQSETLCEAKKNEAREERIRRNERDSWKDARKHIEQRYEQLLNEKEVLLKQMKLDGSLEKEIEDETARMSATGEEHIQKRSQLEAGIRQILDLMVVEIAEIENKKIGFHVQCAGIEKAVL
partner: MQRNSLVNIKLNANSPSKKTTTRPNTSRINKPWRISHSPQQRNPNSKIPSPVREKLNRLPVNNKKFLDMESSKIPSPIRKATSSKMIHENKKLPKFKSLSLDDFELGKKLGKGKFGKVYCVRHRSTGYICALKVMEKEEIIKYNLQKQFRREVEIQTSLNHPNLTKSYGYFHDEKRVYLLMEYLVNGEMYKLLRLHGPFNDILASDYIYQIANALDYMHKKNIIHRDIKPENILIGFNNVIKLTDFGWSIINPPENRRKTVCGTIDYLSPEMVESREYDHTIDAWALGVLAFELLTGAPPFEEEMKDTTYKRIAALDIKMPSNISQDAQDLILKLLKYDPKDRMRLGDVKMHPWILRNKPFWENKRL

In the test the parent is B1. The settings on record: with aurk_yeast IPL1, P38991.
Consider MFGDRRKAGGLNLNGRAAIAITPTKRFTDYTGSTSVRKTDARPALSQPRVALFNTKNSSVAPRDVKSLVSLNGSKIYNFLVEYESSDAPSEQLIMKPRGKNDFIACFELIYQHLSKDYEFPRHERIEEEVSQIFKGLGYPYPLKNSYYQPMGSSHGYPHLLDALSWLIDIIRINSAVSEDTQNILFGDFMEQGKAQEKTLNYAWMTSTFRDYTNDRKAAENPSSSYWDDTKHRLRKYFEQSNEFEDMTKTAASALEMLNYECDEIEADKGNEASLKEEISRIRDDIRKAKDYLEQNLHVKQHMEKELAMVKSEQEEKISENEKVQKMVDDLKNKIELQKQIHGLTGKEVRQMNLDNNKDKEVVLEIQSELDRLSKETWKLKDEDFFKEQKSKFIHLAEQIMKILSGLNIQMNLEPLRAPTNERDLKDYWETLNKIWVPEISRQLHQRKLELETEQSRFSNKAVTAEERIQIQSETLCEAKKNEAREERIRRNERDSWKDARKHIEQRYEQLLNEKEVLLKQMKLDGSLEKEIEDETARMSATGEEHIQKRSQLEAGIRQILDLMVVEIAEIENKKIGFHVQCAGIEKAVL [T8A;S18A;S44A;S51A], for which the “effect of a mutation on the interaction” value is “disrupting interaction”.
